This is an account of results in patent US5789539, “Chemokine-like proteins and methods of use” (Repligen Corporation, dated 1998).

The term Ki denotes a measure of affinity in units of concentration, obtained from inhibition or displacement.

Assay [1] deals with T1, human neutrophil IL-8 receptor subtype B (huIL8Rb) (human, UniProt P25025). The experiment in a line: competition with 0.5 nM 125I-labeled IL-8 on CHO cells expressing huIL8Rb; "NC" indicates no competition. On the procedure: (§1) receptor subtype B (huIL8Rb), was used in binding assays to test mutant chemokine binding. Approximately 5×10^3 cells were plated in the wells of a 96 well plate and grown for 2 to 3 days. The medium was replaced with phosphate-buffered saline (PBS) supplemented with 0.5% BSA (PBS/BSA), 0.5 nM ^125I-labeled IL-8, and increasing concentrations of the various unlabeled chemokines. The plates were incubated on ice for 90 minutes, the binding mixture was removed, and the cells were washed three times with ice-cold PBS/BSA. The cells were removed from the plates with trypsin-EDTA (Gibco), and the radioactivity of the entire contents of the well determined by gamma counting. Binding of each chemokine to untransfected cells, or binding in the presence of 2 μM unlabeled IL-8, was determined and the value obtained used as the background value. Binding data was plotted as percent of mean specific binding (total binding minus background/specific binding with no competitor). […] "NC" indicates no competition.

Assay [2] concerns the target T1, human neutrophil IL-8 receptor subtype …. The experiment in a line: competition with 0.5 nM 125I-labeled IL-8 on CHO cells expressing huIL8Rb. The procedure:
as §1

B1: wild-type platelet factor 4 (PF4) (ligand)
chain: EAEEDGDLQCLCVKTTSQVRPRHITSLEVIKAGPHCPTAQLIATLKNGRKICLDLQAPLYKKIIKKLLES
As for B1, the binding result in assay [1] was “no binding”.

B2: PF4M1 (ligand)
chain: EAEEDGDLRCLCVKTTSQVRPRHITSLEVIKAGPHCPTAQLIATLKNGRKICLDLQAPLYKKIIKKLLES
For the molecule B2, in assay [2], the Ki amounted to 839 nM.

B3: PF4M2 (ligand)
chain: MSAKELRCQCVKTTSQVRPRHITSLEVIKAGPHCPTAQLIATLKNGRKICLDLQAPLYKKIIKKLLES
In assay [2], B3 gave a Ki of 52 nM. This Ki lies about 16-fold lower than the previous one.
